Laboratory results reported in US20100158902A1 (ONO PHARMACEUTICAL, published 2010).
Numbering of substitutions follows the chain as printed.

B1: 1C6 human monoclonal antibody (antibody, V domains shown)
VH: EVQLVESGRGLVQPGGSLRLSCAASGFTFSSYWMSWVRQAPGKGLEWVANMNQDGSEKYYVDSVKGRFTISRDNAKNSLYLQMNSLRAEDTAVYYCARDLTGPYYYDYYGMDVWGQGTTVTVSS
VL: AIRMTQSPSSVSASVGDRVTITCRASQGISSALAWYQQTPGKAPKLLIYDASSLESGVPSRFSGSGSGTDFTLTISSLQPEDFATYYCQQFNSYPRTFGQGTKVEIK
notes: Whole human monoclonal antibody with kappa light chain (VK L18), from a HuMAb Mouse; also called Z1/C6; mAb Z group antibody
B2: 1D3 human monoclonal antibody (antibody, V domains shown)
VH: EVQLVQSGAEVKKPGASVKVSCKVSGYTLTKLSVHWVRQAPGKGLEWMGSFDPEDGETIYSQRFQGRVTMTEDTSTDTAYMELTSLRSEDTAVYYCATEGQWLVAYYGMDVWGQGTTVTVSS
VL: B1 VL with A1E, R3V, M4L, V11L, T39K, R96L, Q100G
notes: Whole human monoclonal antibody with kappa light chain (VK L18), from a KM Mouse; also called B1/D3; mAb B group antibody
B3: 1H2 human monoclonal antibody (antibody, V domains shown)
VH: B2 VH with E1Q, L29F, T84S, T117M
VL: B1 VL with A1E, R3V, M4L, V11L, T39K, R96L, Q100G
notes: Whole human monoclonal antibody with kappa light chain (VK L18), from a KM Mouse; also called B1/H2; B1H2
B4: 2A5 human monoclonal antibody (antibody, V domains shown)
VH: B1 VH with E1Q, E6Q, R9G
VL: B1 VL with A1D, R3Q, T5I, V11L, T39K
notes: Whole human monoclonal antibody with kappa light chain (VK L18), from a HuMAb Mouse; also called Z2/A5; Z2A5

Columns and labels:
[1] = molecular target: T1, recombinant human SDF-1α (Peprotech) (human, UniProt P48061 22-89); experiment: SPR (Biacore), antibody amine-coupled to CM5 chip, SDF-1 flowed at 5-40 nM right after dilution to maximize the dimer population, 1:1 Langmuir fit
T1 construct: Bought protein (Peprotech, cat. 300-28A); also called rh SDF-1α; Stromal cell-Derived Factor-1
T1 sequence (P48061 22-89 limits assumed): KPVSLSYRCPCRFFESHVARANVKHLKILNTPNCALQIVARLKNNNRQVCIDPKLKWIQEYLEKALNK
Method: The antigen-antibody association kinetics was followed for 2 minutes and the dissociation kinetics was followed for 8 minutes. The association and dissociation curves were fit to a 1:1 Langmuir binding model using BIAevaluation software (Biacore AB).

monomeric SDF-1 [2] = molecular target: T2, monomeric SDF-1 (human, UniProt P48061 22-89); experiment: SPR (Biacore), low density of SDF-1 covalently attached to CM5 chip, analyte at 10-50 nM
T2 construct: also called monomeric form of SDF-1; SDF-1 at low density on a CM5 chip
T2 sequence (P48061 22-89 limits assumed): as above

monomeric SDF-1 [3] = molecular target: T2, monomeric SDF-1; experiment: SPR (Biacore), low density of SDF-1 covalently attached to CM5 chip, analyte at 100-500 nM
[4] = molecular target: T1, recombinant human SDF-1α (Peprotech); experiment: cell-based or functional assay
[5] = molecular target: T1, recombinant human SDF-1α (Peprotech); experiment: radio-labeled ligand binding assay: the antibody blocks binding of 100 pM 125I-SDF-1α to HuVEC cells (GAGs, no CXCR4); unit taken from the axis 'Ab conc in nM'
Source text: (§1) An irrelevant antibody with the same isotype was used as a negative control.

[6] = molecular target: T1, recombinant human SDF-1α (Peprotech); experiment: radio-labeled ligand binding assay: the antibody blocks binding of 100 pM 125I-SDF-1 to CEM cells; unit taken from the axis 'Ab in nM'
Source text: as §1

Binder | Kd [1] [nM] | koff [1] [s⁻¹] | kon [1] [M⁻¹ s⁻¹] | Kd (monomeric SDF-1 [2]) [nM] | koff (monomeric SDF-1 [2]) [s⁻¹] | kon (monomeric SDF-1 [2]) [M⁻¹ s⁻¹] | Kd (monomeric SDF-1 [3]) [nM] | koff (monomeric SDF-1 [3]) [s⁻¹] | kon (monomeric SDF-1 [3]) [M⁻¹ s⁻¹] | EC50, inhibition of SDF-1α (5 nM)-induced migration of CEM cells (Fluorescent Units) [4] [nM] | EC50 [5] [nM] | EC50 [6] [nM]
B1 | 0.46 | 0.00064 | 1.4e+06 | 3.6 | 0.0004 | 110000 | – | – | – | – | – | –
B2 | 0.63 | 0.0005 | 800000 | – | – | – | 151 | 0.0017 | 11000 | – | – | –
B3 | 1.32 | 0.00084 | 600000 | – | – | – | 176 | 0.0016 | 9100 | 0.498 | 0.013 | 0.117
B4 | 0.37 | 0.0011 | 2.9e+06 | 4.6 | 0.00045 | 96000 | – | – | – | 0.543 | 0.0637 | 0.347
